Experimental data as given in publication PMC9352680, “A comprehensive thermodynamic model for RNA binding by the Saccharomyces cerevisiae Pumilio protein PUF4”.

T1: PUF4 RNA-binding domain (Saccharomyces cerevisiae, UniProt P25339 537-888)
T1 sequence: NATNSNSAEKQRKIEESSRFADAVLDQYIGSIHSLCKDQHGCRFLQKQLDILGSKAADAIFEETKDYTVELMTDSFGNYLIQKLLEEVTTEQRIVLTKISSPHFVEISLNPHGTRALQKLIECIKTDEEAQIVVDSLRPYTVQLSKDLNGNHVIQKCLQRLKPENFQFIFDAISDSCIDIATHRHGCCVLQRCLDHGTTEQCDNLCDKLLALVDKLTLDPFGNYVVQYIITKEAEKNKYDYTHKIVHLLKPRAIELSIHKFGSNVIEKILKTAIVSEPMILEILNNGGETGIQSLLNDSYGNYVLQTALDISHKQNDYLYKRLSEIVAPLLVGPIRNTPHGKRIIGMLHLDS


The binders below were run against T1, PUF4 RNA-binding domain (assay: Mg; RNA-MaP; 20 mM Na-HEPES pH 7.4, 30 mM KOAc, 0.75 mM MgCl2, 0.1% Tween-20, 5% glycerol, 0.1 mg/mL BSA, 2 mM DTT; 25 C; 0.0125-409.6 nM protein). Details: tags: N-His6-TEV cleaved; C-SNAP kept, Cy3B-labelled; label: tethered on chip by stalled RNA polymerase.

Row | Binder | Kd [µM]
1 | Id_ii_S4_P4E.4_K4.3_C4.2_[C-2G]_[T-1C]_H4.3_A4.1_F4.1_T4.2_[G10T]_[T11A] (ssRNA) RNA: UUUGACAACUGAUCGUUCUUUCUGCACACUAUUAUAUUCUUUCUCGAUCAGUUGUCUUU | 0.0285
2 | Id_ii_S4_P4E.4_K4.3_C4.2_[C-2A]_H4.3_A4.1_F4.1_T4.2_[G10A] (ssRNA) RNA: UUUGACAACUGAUCGUUCUUUCUAUACACUAUUAAUUUCUUUCUCGAUCAGUUGUCUUU | 0.0282
3 | Id_ii_S4_P4E.4_K4.3_C4.2_[C-2G]_H4.3_A4.1_F4.1_T4.2_[G10T]_[T11A] (ssRNA) RNA: UUUGACAACUGAUCGUUCUUUCUGUACACUAUUAUAUUCUUUCUCGAUCAGUUGUCUUU | 0.000647
4 | Id_ii_S4_P4E.4_K4.3_C4.2_[C-2G]_H4.3_A4.1_F4.1_T4.2_[G10A]_[T11A] (ssRNA) RNA: UUUGACAACUGAUCGUUCUUUCUGUACACUAUUAAAUUCUUUCUCGAUCAGUUGUCUUU | 0.000535
5 | Id_ii_S4_P4E.4_K4.3_C4.2_[C-2G]_H4.3_A4.1_F4.1_T4.2_[G10A]_[T11C] (ssRNA) RNA: UUUGACAACUGAUCGUUCUUUCUGUACACUAUUAACUUCUUUCUCGAUCAGUUGUCUUU | 0.00154
6 | Id_ii_S4_P4E.4_K4.3_C4.2_[C-2G]_H4.3_A4.1_F4.1_T4.2_[G10T] (ssRNA) RNA: UUUGACAACUGAUCGUUCUUUCUGUACACUAUUAUUUUCUUUCUCGAUCAGUUGUCUUU | 0.000388
7 | UCUCUUUUUAUUUUUAUCUCUU (ssRNA) [Ib_S1_P5E.1_K5.1_C5.1_H5.1_[G2T]_A5.1_[A7T]_F5.1_T5.1] | > 2.3
8 | UCUCUUUAUAUUGUUAUCUCUU (ssRNA) [Ib_S1_P5E.1_K5.1_C5.1_H5.1_[G2A]_A5.1_[A7G]_F5.1_T5.1] | 0.846
9 | UCUCUUUGUAUAAUUAUCUCUU (ssRNA) [Ia_S1_P5E.1_K5.1_C5.1_H5.1_A5.1_[T6A]_F5.1_T5.1] | 0.00523
10 | Id_ii_S4_P4E.3_K4.2_C4.2_[C-2T]_[T-1A]_H4.2_A4.1_F4.1_T4.2_[G10C]_[T11G] (ssRNA) RNA: UUUGACAACUGAUCGUUCUUUCUUAUAUAUAUUACGUUCUUUCUCGAUCAGUUGUCUUU | 0.0284
11 | Id_ii_S4_P4E.4_K4.3_C4.2_[C-2T]_[T-1A]_H4.3_A4.1_F4.1_T4.2_[G10T]_[T11A] (ssRNA) RNA: UUUGACAACUGAUCGUUCUUUCUUAACACUAUUAUAUUCUUUCUCGAUCAGUUGUCUUU | 0.716
12 | Id_ii_S4_P4E.4_K4.3_C4.2_[T-1G]_H4.3_A4.1_F4.1_T4.2_[G10C]_[T11A] (ssRNA) RNA: UUUGACAACUGAUCGUUCUUUCUCGACACUAUUACAUUCUUUCUCGAUCAGUUGUCUUU | > 2.3
13 | Id_ii_S4_P4E.3_K4.2_C4.2_[C-2T]_H4.2_A4.1_F4.1_T4.2_[G10T]_[T11A] (ssRNA) RNA: UUUGACAACUGAUCGUUCUUUCUUUUAUAUAUUAUAUUCUUUCUCGAUCAGUUGUCUUU | 0.0259
14 | Id_ii_S4_P4E.4_K4.3_C4.2_[C-2G]_H4.3_A4.1_F4.1_T4.2_[G10C]_[T11C] (ssRNA) RNA: UUUGACAACUGAUCGUUCUUUCUGUACACUAUUACCUUCUUUCUCGAUCAGUUGUCUUU | 0.00102
15 | Id_ii_S4_P4E.3_K4.2_C4.2_[T-1C]_H4.2_A4.1_F4.1_T4.2_[G10A] (ssRNA) RNA: UUUGACAACUGAUCGUUCUUUCUCCUAUAUAUUAAUUUCUUUCUCGAUCAGUUGUCUUU | 0.00486
16 | Id_ii_S4_P4E.4_K4.3_C4.2_[T-1G]_H4.3_A4.1_F4.1_T4.2_[G10C]_[T11C] (ssRNA) RNA: UUUGACAACUGAUCGUUCUUUCUCGACACUAUUACCUUCUUUCUCGAUCAGUUGUCUUU | > 2.3
17 | Id_ii_S4_P4E.4_K4.3_C4.2_[C-2T]_[T-1A]_H4.3_A4.1_F4.1_T4.2_[G10A]_[T11C] (ssRNA) RNA: UUUGACAACUGAUCGUUCUUUCUUAACACUAUUAACUUCUUUCUCGAUCAGUUGUCUUU | > 2.3
18 | Id_ii_S4_P4E.4_K4.3_C4.2_[C-2T]_[T-1A]_H4.3_A4.1_F4.1_T4.2_[G10C]_[T11A] (ssRNA) RNA: UUUGACAACUGAUCGUUCUUUCUUAACACUAUUACAUUCUUUCUCGAUCAGUUGUCUUU | > 2.3
19 | Id_ii_S4_P4E.4_K4.3_C4.2_[C-2T]_[T-1A]_H4.3_A4.1_F4.1_T4.2_[G10T]_[T11C] (ssRNA) RNA: UUUGACAACUGAUCGUUCUUUCUUAACACUAUUAUCUUCUUUCUCGAUCAGUUGUCUUU | > 2.3
20 | Id_ii_S4_P4E.3_K4.2_C4.2_[T-1A]_H4.2_A4.1_F4.1_T4.2_[G10C]_[T11A] (ssRNA) RNA: UUUGACAACUGAUCGUUCUUUCUCAUAUAUAUUACAUUCUUUCUCGAUCAGUUGUCUUU | 0.023
21 | Id_ii_S4_P4E.3_K4.2_C4.2_H4.2_A4.1_F4.1_T4.2_[G10C] (ssRNA) RNA: UUUGACAACUGAUCGUUCUUUCUCUUAUAUAUUACUUUCUUUCUCGAUCAGUUGUCUUU | 0.00515
22 | Id_ii_S4_P4E.4_K4.3_C4.2_[C-2G]_[T-1C]_H4.3_A4.1_F4.1_T4.2_[G10C]_[T11G] (ssRNA) RNA: UUUGACAACUGAUCGUUCUUUCUGCACACUAUUACGUUCUUUCUCGAUCAGUUGUCUUU | 2
23 | If_S4_P4E.3_K4.2_C4.2_H4.2_A4.1_F4.1_T4.2 (ssRNA) RNA: UUUGACAACUGAUCGUUCUUUCUCUUAUAUAUUAGUUUCUUUCUCGAUCAGUUGUCUUU | 0.00897
24 | Id_ii_S4_P4E.3_K4.2_C4.2_[C-2T]_H4.2_A4.1_F4.1_T4.2_[G10C]_[T11G] (ssRNA) RNA: UUUGACAACUGAUCGUUCUUUCUUUUAUAUAUUACGUUCUUUCUCGAUCAGUUGUCUUU | 0.0101
